Tests used:
[1] = biological target: T1, EGF receptor (UniProt P00533 25-1210, limits assumed); test: immunofluorescence of phage on A431 cells
T1 construct: whole, on cells; also called epidermal growth factor receptor

[2] = biological target: T1, EGF receptor; test: competition of fdEGF phage binding to A431 cells, FACS, inhibition from mean fluorescence intensity

B1: EGF1 library clone 3 (phage-displayed EGF variant) (other)
chain: NSDSECPLSHDGYCLHDGVCMYIEALDEYACNCVVGYIGERCQYRDLRWWELR
modifications: displayed on phage as a coat protein fusion (pHEN3)
notes: also called EGF1 # 3; not shown: phage coat protein fusion partner of phagemid pHEN3 (and any vector tags) at the C end
[1]
  binding result: binds

B2: HisEGFm1 (EGFm1 with N-terminal hexahistidyl tag) (ligand, human, UniProt P01133 971-1023, looked up)
chain: NSDSECPLSHDGYCLHDGVCMYIEALDQYACNCVVGYIGERCQYSDLSWWELS
notes: mature; Clone 6 of the EGF2 library selection, expressed in the E. coli periplasm and purified by IMAC; The preparation also held molecules of about 15 kDa (dimer size); also called purified EGFm1; soluble EGFm1; not shown: N-terminal hexahistidyl tag (HHHHHH); primer SfiHisEGF encodes ...Met-Ala-Gly-His6-Ala befor
[2]
  IC50: ~500 nM

From patent EP1557429A1 (Vectron Therapeutics AG, dated 2005)
